Measured values published in patent US20120178139A1 (published 2012).

Legend:
[1] = molecular target: T1, mouse glycophorin-A on mouse erythrocytes (mouse, UniProt P14220 1-168); assay: photo-crosslinking of biotinylated peptide to whole mouse erythrocytes, streptavidin pull-down and streptavidin Western blot
Procedure: When whole erythrocytes were incubated with ERY1 peptide functionalized with biotin and a photoactivatable crosslinker, a single 28 kDa protein was conjugated with the peptide-biotin complex, as detected by a streptavidin Western blot (FIG. 2A). The reaction lysate was extensively washed and purified using streptavidin magnetic beads to ensure no unlabeled proteins from the erythrocyte lysate remained. […] The mismatch peptide, […] (SEQ ID NO:2), was designed to contain the same amino acid residues as ERY1, and to match its hydrophobicity topography. […] Anti-GYPA Western blotting of the same purified samples from the crosslinking reaction confirmed that the candidate biotinylated protein was indeed GYPA (FIG. 2B).
In brief, peptides were solubilized in PBS/DMF and reacted with 1.05 equivalents of Mts-atf-biotin overnight at 4° C. Following clarification of the reaction by centrifugation, biotinylated peptide was incubated with erythrocytes at in PBSA-50 for 1 h at 37° C., cells were washed twice in fresh PBS, and were UV irradiated at 365 nm for 8 min at room temperature. Cells were lysed by sonication and the lysate was purified using streptavidin-coated magnetic beads (Invitrogen). The eluate was run on an SDS-PAGE and transferred to a PVDF membrane, and immunoblotted with streptavidin-HRP(R&D Systems) or anti-mouse GYPA.

[2] = molecular target: T1, mouse glycophorin-A on mouse …; assay: equilibrium binding to mouse erythrocytes, flow cytometry, one-site binding fit
[3] = molecular target: T1, mouse glycophorin-A on mouse …; assay: in vivo, geometric mean fluorescence of circulating erythrocytes by flow cytometry, one-phase exponential decay
Procedure: Consistent with glycophorin-A association, ERY1-OVA bound to erythrocytes (CD45⁻) but not to leukocytes (CD45⁺). ERY1-OVA binding was unbiased as to the apoptotic state of the erythrocytes, binding strongly to both annexin-V⁺ and annexin-V⁻ CD45⁻ populations (FIG. 9b).
150 μg of ERY1-OVA or OVA in 0.9% saline (B. Braun) in a volume of 100 μL was injected intravenously into the tail of 8-12 week old female C57BL/6 mice while under anesthesia with isoflurane. Care was taken to ensure mice were kept at 37 C with a heating pad during experimentation. At predetermined time points, 5 μL of blood was taken from a small incision on the tail, diluted 100-fold into 10 mM EDTA in PBS, washed three times with PBS with 10 mg/mL BSA, and analyzed for OVA content by flow cytometry and ELISA. OVA was quantified by sandwich ELISA, using a mouse monoclonal anti-OVA antibody (Sigma) for capture, a polyclonal rabbit anti-OVA antibody (AbD SEROTEC) for detection, a goat anti-rabbit-IgG-HRP antibody (BioRad) for final detection, followed by TMB substrate (GE Life Sciences). Hematological characterization was performed on an ADVIVA 2120 Hematology System (Siemens). Erythrocyte-bound ERY1-GST was detected by incubating labeled cells with goat anti-GST (GE Healthcare Life Sciences), followed by incubation with AlexaFluor488 donkey anti-goat (Invitrogen), and analyzed by flow cytometry. […]

Binder	binding result [1]	Kd [2]	cell-surface half-life [3]
H-PLLTVGMDLWPWGGSGCRG-NH2 (not fully specified (residue 17); also: conjugated to Mts-Atf-biotin, Same amino acids as ERY1, scrambled) [mismatch peptide, soluble, biotinylated (H2N-PLLTVGMDLWPWGGSGCRG-CONH2 conjugated to Mts-Atf-biotin)]	no binding	–	–
ERY1-OVA (ovalbumin chemically conjugated with ERY1 peptide through SMCC) (other, C-terminal amide; cysteine side chain conjugated via SMCC to lysines of OVA; lysine side chains carry SMCC linked to the cysteine of the ERY1 peptide, also called ERY1-conjugated antigen) GSIGAASMEFCFDVFKELKVHHANENIFYCPIAIMSALAMVYLGAKDSTRTQINKVVRFDKLPGFGDSIEAQCGTSVNVHSSLRDILNQITKPNDVYSFSLASRLYAEERYPILPEYLQCVKELYRGGLEPINFQTAADQARELINSWVESQTNGIIRNVLQPSSVDSQTAMVLVNAIVFKGLWEKAFKDEDTQAMPFRVTEQESKPVQMMYQIGLFRVASMASEKMKILELPFASGTMSMLVLLPDEVSGLEQLESIINFEKLTEWTSSNVMEERKIKVYLPRMKMEEKYNLTSVLMAMGITDVFSSSANLSGISSAESLKISQAVHAAHAEINEAGREVVGSAEAGVDAASVSEEFRADHPFLFCIKHIATNAVLFFGRCVSP peptide: WMVLPWLPGTLDGGSGCRG	–	6.2 nM	17.2 h
